In the supplement of paper PMC9112550, “Optimization of the antimicrobial peptide Bac7 by deep mutational scanning” (BMC Biology, 2022):

Tested on: Escherichia coli TOP10
Test: shrunken log2 fold change of peptide-encoding DNA abundance (4.5 h post-induction vs induction); higher = less antimicrobial activity (less host growth inhibition)
Conditions: time post-induction: 4.5 h; library: site-saturation at positions 5, 18, 19, 20
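Further: peptides expressed intracellularly from a pBAD plasmid library in pooled LB shake-flask culture, induced with 0.3% L-arabinose, DNA abundance read by NGS, three biological replicates, DESeq2 with apeglm shrinkage.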

Row | Sequence | shrunken log2 fold change
1 | RRIRARPPRLPRPRPRPRFYPRP | -0.0395
2 | RRIRPRPPRLPRPRPRPMTLPRP | -0.189
3 | RRIRQRPPRLPRPRPRPWYHPRP | -0.32
4 | RRIRKRPPRLPRPRPRPLTMPRP | 0.185
5 | RRIRRRPPRLPRPRPRPWNAPRP | -0.0963
6 | RRIRKRPPRLPRPRPRPAREPRP | 0.89
7 | RRIRVRPPRLPRPRPRPMNLPRP | -0.0749
8 | RRIRWRPPRLPRPRPRPEVFPRP | 1.35
9 | RRIRLRPPRLPRPRPRPNAVPRP | 0.00719
10 | RRIRMRPPRLPRPRPRPTHVPRP | -0.00477
11 | RRIRVRPPRLPRPRPRPVGEPRP | 0.305
12 | RRIRWRPPRLPRPRPRPQQSPRP | -0.0166
13 | RRIRLRPPRLPRPRPRPHQWPRP | -0.0297
14 | RRIRKRPPRLPRPRPRPNFAPRP | 0.155
15 | RRIRKRPPRLPRPRPRPIGMPRP | 0.213
16 | RRIRERPPRLPRPRPRPMMIPRP | -0.251
17 | RRIRWRPPRLPRPRPRPRNHPRP | -0.141
18 | RRIRQRPPRLPRPRPRPIRGPRP | -0.0547
19 | RRIRVRPPRLPRPRPRPTCPPRP | 0.243
20 | RRIRPRPPRLPRPRPRPEVVPRP | 0.0581
21 | RRIRFRPPRLPRPRPRPSFPPRP | -0.38
22 | RRIRWRPPRLPRPRPRPRSMPRP | 0.0304
23 | RRIRRRPPRLPRPRPRPVQHPRP | -0.0478
24 | RRIRFRPPRLPRPRPRPNNDPRP | -0.673
25 | RRIRLRPPRLPRPRPRPFLNPRP | -0.172

Row | Sequence | shrunken log2 fold change
26 | RRIRHRPPRLPRPRPRPCFFPRP | -0.193
27 | RRIRPRPPRLPRPRPRPVSDPRP | -0.0922
28 | RRIRVRPPRLPRPRPRPPWLPRP | 0.365
29 | RRIRQRPPRLPRPRPRPPKMPRP | -0.0821
30 | RRIRERPPRLPRPRPRPRLMPRP | -0.103
31 | RRIRNRPPRLPRPRPRPAGGPRP | 0.16
32 | RRIRKRPPRLPRPRPRPMCHPRP | -0.0182
33 | RRIRTRPPRLPRPRPRPFRCPRP | 0.0246
34 | RRIRRRPPRLPRPRPRPIFTPRP | 0.2
35 | RRIRVRPPRLPRPRPRPAMWPRP | -0.0044
36 | RRIRPRPPRLPRPRPRPEGVPRP | 0.103
37 | RRIRSRPPRLPRPRPRPMNHPRP | -0.256
38 | RRIRKRPPRLPRPRPRPCNHPRP | -0.16
39 | RRIRHRPPRLPRPRPRPYLRPRP | -0.173
40 | RRIRQRPPRLPRPRPRPECDPRP | 0.0401
41 | RRIRTRPPRLPRPRPRPIVLPRP | -0.145
42 | RRIRYRPPRLPRPRPRPPNGPRP | 3.11
43 | RRIRCRPPRLPRPRPRPQKQPRP | 0.0183
44 | RRIRYRPPRLPRPRPRPPHGPRP | -0.0619
45 | RRIRYRPPRLPRPRPRPLKNPRP | -0.337
46 | RRIRCRPPRLPRPRPRPRRRPRP | 0.496
47 | RRIRGRPPRLPRPRPRPNVVPRP | 0.0631
48 | RRIRKRPPRLPRPRPRPHWNPRP | -0.296
49 | RRIRWRPPRLPRPRPRPFAWPRP | 0.179
50 | RRIRIRPPRLPRPRPRPIFSPRP | -0.181

Row | Sequence | shrunken log2 fold change
51 | RRIRERPPRLPRPRPRPIKPPRP | -0.363
52 | RRIRGRPPRLPRPRPRPMIDPRP | 0.967
53 | RRIRGRPPRLPRPRPRPQEYPRP | -0.00348
54 | RRIRKRPPRLPRPRPRPMPYPRP | -0.0398
55 | RRIRFRPPRLPRPRPRPIIGPRP | -0.024
56 | RRIRCRPPRLPRPRPRPNDHPRP | -0.716
57 | RRIRARPPRLPRPRPRPDYLPRP | -0.805
58 | RRIRARPPRLPRPRPRPVYSPRP | -0.312
59 | RRIRSRPPRLPRPRPRPYWHPRP | -0.783
60 | RRIRHRPPRLPRPRPRPMHGPRP | -0.00804
61 | RRIRIRPPRLPRPRPRPSLEPRP | -0.05
62 | RRIRTRPPRLPRPRPRPQMKPRP | -0.449
63 | RRIRVRPPRLPRPRPRPEMVPRP | -0.0955
64 | RRIRHRPPRLPRPRPRPLLWPRP | 0.0832
65 | RRIRFRPPRLPRPRPRPNCPPRP | 0.0451
66 | RRIRMRPPRLPRPRPRPHMRPRP | 0.509
67 | RRIRMRPPRLPRPRPRPSAWPRP | 1.75
68 | RRIRARPPRLPRPRPRPEVWPRP | 1.43
69 | RRIRFRPPRLPRPRPRPVSLPRP | -0.00718
70 | RRIRGRPPRLPRPRPRPVSFPRP | 0.392
71 | RRIRNRPPRLPRPRPRPQWCPRP | -0.0662
72 | RRIRHRPPRLPRPRPRPWMWPRP | -0.0064
73 | RRIRCRPPRLPRPRPRPTEIPRP | -0.146
74 | RRIRPRPPRLPRPRPRPHWIPRP | -0.212
75 | RRIRWRPPRLPRPRPRPIVLPRP | -0.628

Row | Sequence | shrunken log2 fold change
76 | RRIRERPPRLPRPRPRPAKGPRP | -0.321
77 | RRIRGRPPRLPRPRPRPTYIPRP | 0.111
78 | RRIRVRPPRLPRPRPRPFMAPRP | -0.128
79 | RRIRTRPPRLPRPRPRPNFCPRP | -0.126
80 | RRIRKRPPRLPRPRPRPFFNPRP | 0.0296
81 | RRIRKRPPRLPRPRPRPTIGPRP | 0.0992
82 | RRIRHRPPRLPRPRPRPRWWPRP | 0.00789
83 | RRIRFRPPRLPRPRPRPHKYPRP | -0.411
84 | RRIRCRPPRLPRPRPRPDYIPRP | 0.0495
85 | RRIRTRPPRLPRPRPRPIQTPRP | -0.0398
86 | RRIRVRPPRLPRPRPRPCPQPRP | -0.0828
87 | RRIRYRPPRLPRPRPRPSWHPRP | -1.12
88 | RRIRFRPPRLPRPRPRPFTMPRP | -0.817
89 | RRIRWRPPRLPRPRPRPYQYPRP | -0.0756
90 | RRIRHRPPRLPRPRPRPDRFPRP | -0.00476
91 | RRIRIRPPRLPRPRPRPYNQPRP | -1.01
92 | RRIRNRPPRLPRPRPRPHCHPRP | -0.398
93 | RRIRIRPPRLPRPRPRPFTLPRP | 0.0488
94 | RRIRERPPRLPRPRPRPAANPRP | 0.0774
95 | RRIRKRPPRLPRPRPRPLNAPRP | 0.731
96 | RRIRNRPPRLPRPRPRPEISPRP | -0.126
97 | RRIRIRPPRLPRPRPRPSHGPRP | 0.09
98 | RRIRCRPPRLPRPRPRPDFDPRP | -0.0217
99 | RRIRCRPPRLPRPRPRPLMKPRP | -0.275
100 | RRIRIRPPRLPRPRPRPFHDPRP | -0.374

Row | Sequence | shrunken log2 fold change
101 | RRIRRRPPRLPRPRPRPWRDPRP | -0.0485
102 | RRIRSRPPRLPRPRPRPLFKPRP | -0.127
103 | RRIRSRPPRLPRPRPRPLMFPRP | -0.321
104 | RRIRGRPPRLPRPRPRPQFHPRP | -0.239
105 | RRIRKRPPRLPRPRPRPCAPPRP | 0.436
106 | RRIRGRPPRLPRPRPRPSATPRP | 3.09
107 | RRIRNRPPRLPRPRPRPCDWPRP | -0.0698
108 | RRIRKRPPRLPRPRPRPCQAPRP | 0.157
109 | RRIRFRPPRLPRPRPRPTERPRP | -0.22
110 | RRIRTRPPRLPRPRPRPHPRPRP | 0.467
111 | RRIRPRPPRLPRPRPRPFQQPRP | -0.000989
112 | RRIRGRPPRLPRPRPRPTVQPRP | 0.796
113 | RRIRYRPPRLPRPRPRPDFIPRP | -0.348
114 | RRIRGRPPRLPRPRPRPDKSPRP | 0.18
115 | RRIRPRPPRLPRPRPRPFFTPRP | -0.117
116 | RRIRRRPPRLPRPRPRPVKYPRP | -0.167
117 | RRIRDRPPRLPRPRPRPGNAPRP | 0.126
118 | RRIRERPPRLPRPRPRPVIYPRP | -0.248
119 | RRIRWRPPRLPRPRPRPRLRPRP | 0.461
120 | RRIRPRPPRLPRPRPRPLGDPRP | 0.279
121 | RRIRWRPPRLPRPRPRPERSPRP | 0.317
122 | RRIRFRPPRLPRPRPRPFNAPRP | -0.415
123 | RRIRVRPPRLPRPRPRPQIVPRP | -0.136
124 | RRIRPRPPRLPRPRPRPAYMPRP | -0.231
125 | RRIRVRPPRLPRPRPRPHEIPRP | 0.026

Row | Sequence | shrunken log2 fold change
126 | RRIRCRPPRLPRPRPRPPDYPRP | 0.0368
127 | RRIRWRPPRLPRPRPRPCDIPRP | -0.143
128 | RRIRDRPPRLPRPRPRPFLWPRP | 0.625
129 | RRIRLRPPRLPRPRPRPQTNPRP | -0.497
130 | RRIRLRPPRLPRPRPRPLQSPRP | 0.0468
131 | RRIRNRPPRLPRPRPRPGLNPRP | 0.035
132 | RRIRWRPPRLPRPRPRPFKGPRP | -0.0135
133 | RRIRMRPPRLPRPRPRPCCIPRP | -0.351
134 | RRIRERPPRLPRPRPRPDWGPRP | -0.00783
135 | RRIRCRPPRLPRPRPRPWNQPRP | -0.516
136 | RRIRARPPRLPRPRPRPDEGPRP | 0.37
137 | RRIRSRPPRLPRPRPRPWSVPRP | -0.305
138 | RRIRMRPPRLPRPRPRPGEQPRP | 1.48
139 | RRIRNRPPRLPRPRPRPELKPRP | 0.00533
140 | RRIRSRPPRLPRPRPRPHNIPRP | -0.211
141 | RRIRYRPPRLPRPRPRPINYPRP | -1.12
142 | RRIRLRPPRLPRPRPRPPAEPRP | 0.404
143 | RRIRSRPPRLPRPRPRPGSCPRP | 0.0634
144 | RRIRFRPPRLPRPRPRPSEEPRP | -0.196
145 | RRIRQRPPRLPRPRPRPILYPRP | 0.0724
146 | RRIRKRPPRLPRPRPRPASVPRP | 0.291
147 | RRIRDRPPRLPRPRPRPQAAPRP | 0.0147
148 | RRIRDRPPRLPRPRPRPIVGPRP | 0.145
149 | RRIRPRPPRLPRPRPRPISDPRP | -0.507
150 | RRIRIRPPRLPRPRPRPHCYPRP | -0.104
